From publication PMC8458463, “Liquid condensation of reprogramming factor KLF4 with DNA provides a mechanism for chromatin organization”

What was measured:
Settings in all cases: protein: recombinant; tags: Nano-His6-TEV tag cleaved
KLF4 DBD [1] = target: T1, KLF4 DBD (human, UniProt O43474 418-513); experiment: EMSA; Zn2+; DBD up to 15 uM; EMSA: 20 mM Tris pH 8, 50 mM NaCl, 5% glycerol, 0.01 mg/ml BSA, 0.1 mM DTT, 0.05 mM TCEP; gel run at 4 C; protein refolded with 3.3 eq ZnSO4
KLF4 DBD [2] = target: T1, KLF4 DBD; experiment: EMSA; Zn2+; 1 uM DNA, 0-6 uM DBD; 1:1, 2:1 and 3:1 complexes, 3:1 needs 6 equivalents; EMSA: 20 mM Tris pH 8, 50 mM NaCl, 5% glycerol, 0.01 mg/ml BSA, 0.1 mM DTT, 0.05 mM TCEP; gel run at 4 C; protein refolded with 3.3 eq ZnSO4
KLF4 DBD [3] = target: T1, KLF4 DBD; experiment: EMSA; Zn2+; 1 uM DNA, 0-6 uM DBD; 3:1 complex at 3 equivalents, tighter than NANK; EMSA: 20 mM Tris pH 8, 50 mM NaCl, 5% glycerol, 0.01 mg/ml BSA, 0.1 mM DTT, 0.05 mM TCEP; gel run at 4 C; protein refolded with 3.3 eq ZnSO4
KLF4 DBD [4] = target: T1, KLF4 DBD; experiment: X-ray crystallography; Zn2+; 2.14 A, 1:1 complex; EMSA: 20 mM Tris pH 8, 50 mM NaCl, 5% glycerol, 0.01 mg/ml BSA, 0.1 mM DTT, 0.05 mM TCEP; gel run at 4 C; protein refolded with 3.3 eq ZnSO4

T1 sequence (O43474 418-513): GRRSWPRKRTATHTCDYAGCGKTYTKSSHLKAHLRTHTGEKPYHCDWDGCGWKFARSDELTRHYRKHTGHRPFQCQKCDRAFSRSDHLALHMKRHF

B1: NKC (dsDNA)
DNA 1: GAGGGGTGGGTC
DNA 2: GACCCACCCCTC
B1: binds (KLF4 DBD [1]).

B2: NANK (dsDNA)
DNA 1: AGGGGGTGTGCCCGCCAGGAGGGGTGGGTC
DNA 2: GACCCACCCCTCCTGGCGGGCACACCCCCT
B2: binds (KLF4 DBD [2]).

B3: NKB (dsDNA)
DNA 1: TGCCCGCCAGGA
DNA 2: TCCTGGCGGGCA
B3: binds (KLF4 DBD [1]).

B4: NANKm (dsDNA)
DNA 1: AGGGGGTGTGCCCGCCAGGAGGGGTGGGTC
DNA 2: GACCCACCCCTCCTGGCGGGCACACCCCCT
modifications: 5-methyl-dC at position 13 of strand 1 (CpG in KLFB); complement strand methylation not stated
B4: binds (KLF4 DBD [3]).

B5: NKA (dsDNA)
DNA 1: AGGGGGTGTGCC
DNA 2: GGCACACCCCCT
B5: binds (KLF4 DBD [4]).
